Measured values reported in patent US20190111122A1 (ENGINEERED ANTIGENS, published 2019).

Molecular target: T1, biotinylated human transferrin (human, UniProt P02787 20-698, biotinylated (sites not given))
T1 construct: Used at 0.05-0.1 mg/mL as the labelling reagent; detected with R-phycoerythrin-conjugated streptavidin; also called Sigma-aldrich T3915-5MG
Experiment: flow cytometry, E. coli C43 (DE3) cells expressing Nlobe_HpuA with SLAM1 or SLAM2, labelled with biotinylated human transferrin

T1 sequence (P02787 20-698 limits assumed): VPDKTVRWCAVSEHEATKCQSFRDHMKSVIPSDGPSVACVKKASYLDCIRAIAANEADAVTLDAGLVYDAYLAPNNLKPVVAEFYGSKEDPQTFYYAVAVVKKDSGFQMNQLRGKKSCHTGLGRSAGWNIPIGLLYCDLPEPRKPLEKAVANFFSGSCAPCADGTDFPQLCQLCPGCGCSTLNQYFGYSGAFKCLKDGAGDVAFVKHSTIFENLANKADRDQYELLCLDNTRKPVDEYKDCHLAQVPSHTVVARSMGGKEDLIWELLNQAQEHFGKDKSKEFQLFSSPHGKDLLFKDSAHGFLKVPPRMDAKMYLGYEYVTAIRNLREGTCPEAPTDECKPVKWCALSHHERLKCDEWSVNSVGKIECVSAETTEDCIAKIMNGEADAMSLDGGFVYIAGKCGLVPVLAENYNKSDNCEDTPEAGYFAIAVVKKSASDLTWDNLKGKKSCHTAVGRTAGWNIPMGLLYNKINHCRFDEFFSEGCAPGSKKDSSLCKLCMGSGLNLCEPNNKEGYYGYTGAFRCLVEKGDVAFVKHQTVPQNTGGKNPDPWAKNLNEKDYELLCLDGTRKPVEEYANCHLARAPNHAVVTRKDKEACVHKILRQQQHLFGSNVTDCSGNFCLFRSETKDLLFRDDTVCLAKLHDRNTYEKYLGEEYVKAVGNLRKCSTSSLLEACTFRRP

B1: TbpB N-lobe fused to HpuA (N. meningitidis) (other)
chain: CLGGGGSFDLDSVETVQDMHSKPKYEDEKSQPESQQDVSENSGAAYGFAVKLPRRNAHFNPKYKEKHKPLGSMDWKKLQRGEPNSFSERDELEKKRGSSELIESKWEDGQSRVVGYTNFTYVRSGYVYLNKNNIDIKNNIVLFGPDGYLYYKGKEPSKELPSEKITYKGTWDYVTDAMEKQRFEGLGSAAGGDKSGALSALEEGVLRNQAEASSGHTDFGMTSEFEVDFSDKTIKGTLYRNNRITQNNSENKQIKTTRYTIQATLHGNRFKGKALAADKGATNGSHPFISDSDSLEGGFYGPKGEELAGKFLSNDNKVAAVFGAKQKDKKDAGGGVAEPHVPVSIPTATPLPTGEVKLSDDNSKIENINTADTGSTSGISIQQRKYEVESYGIKREEKAFIFQTPGGAQYALSSYADPITVSYSSPDFKIPDRHAGQRLADGSRIFICCSESGATSYAEITKQDYMKFGAWIGPNGEIDLFAGGFPVGKTPKPKYSWGNTEPETKGKGKITYQVWGIRVRNRQFVTSSYTPPKSGSYYGTLANTPVLSFITANFNSNKLAGEIRGNSDYGPSVKIENATINSLSFSGTATSGGKTGNLEGKFFGKFNGYRDTETSIGGKITFDGDRSLDTVFGGVSYKKELENNTDTSTTHLTK
notes: also called Nlobe-HpuA
binding result: binds
